Measured values published in patent publication US20090269346A1.

Tests used:
LRP2 CR89 (human) [1] = target: LRP2 CR89 (human) (UniProt P98164); test: phage binding: equal amounts of phage incubated in wells coated with LRP2 CR89, bound phage eluted and titered; in the presence of 50 mM EDTA
LRP2 CR89 (human) [2] = target: LRP2 CR89 (human) (UniProt P98164); test: phage binding: equal amounts of phage incubated in wells coated with LRP2 CR89, bound phage eluted and titered; no EDTA

Sequence of LRP2 CR89 (human) (P98164 1025-1102): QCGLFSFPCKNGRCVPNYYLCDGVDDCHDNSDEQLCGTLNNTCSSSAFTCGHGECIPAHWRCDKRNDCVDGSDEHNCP

B1: RAP phage (protein, not shown: large carriers)
chain: YSREKNQPKPSPKRESGEEFRMEKLNQLWEKAQRLHLPPVRLAELHADLKIQERDELAWKKLKLDGLDEDGEKEARLIRNLNVILAKYGLDGKKDARQVTSNSLSGTQEDGLDDPRLEKLWHKAKTSGKFSGEELDKLWREFLHHKEKVHEYNVLLETLSRTEEIHENVISPSDLSDIKGSVLHSRHTELKEKLRSINQGLDRLRRVSHQGYSTEAEFEEPRVIDLWDLAQSANLTDKELEAFREELKHFEAKIEKHNHYQKQLEIAHEKLRHAESVGDGERVSRSREKHALLEGRTKELGYTVKKHLQDLSGRISRARAEAETG
modifications: Displayed on M13 phage as an N-terminal fusion to pIII; pIII letters not given.
B1 was tested. Which cfu recovered (LRP2 CR89 (human) [1]) did it give?
The cfu recovered was 146 cfu.

What about the cfu recovered (LRP2 CR89 (human) [2]) of the same binder?
Its cfu recovered is 520 cfu.
